According to publication PMC2627783:
Residue numbers refer to the chain shown, from its start. Numbers in names are those of the source.

Biological target: HscA (UniProt P0A6Z1)
Sequence (P0A6Z1 whole entry): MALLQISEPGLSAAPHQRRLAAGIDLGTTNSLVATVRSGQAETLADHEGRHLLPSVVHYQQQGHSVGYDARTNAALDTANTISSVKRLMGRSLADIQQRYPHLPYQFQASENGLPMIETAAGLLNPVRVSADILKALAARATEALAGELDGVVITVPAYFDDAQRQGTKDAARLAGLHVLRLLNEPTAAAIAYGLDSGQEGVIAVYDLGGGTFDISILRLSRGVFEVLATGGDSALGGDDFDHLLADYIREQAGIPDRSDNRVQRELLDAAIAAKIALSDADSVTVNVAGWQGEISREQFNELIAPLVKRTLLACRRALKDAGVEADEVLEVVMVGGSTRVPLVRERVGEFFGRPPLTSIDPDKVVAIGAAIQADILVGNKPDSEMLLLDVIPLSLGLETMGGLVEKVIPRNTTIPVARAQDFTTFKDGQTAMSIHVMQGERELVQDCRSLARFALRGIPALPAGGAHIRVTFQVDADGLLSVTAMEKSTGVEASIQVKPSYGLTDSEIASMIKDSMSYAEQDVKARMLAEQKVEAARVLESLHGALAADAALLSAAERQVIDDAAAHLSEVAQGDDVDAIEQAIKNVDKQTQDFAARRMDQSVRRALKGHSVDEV

B1: HscB(E97A,E100A,E104A) (natural protein)
chain: MDYFTLFGLPARYQLDTQALSLRFQDLQRQYHPDKFASGSQAEQLAAVQQSATINQAWQTLRHPLMRAEYLLSLHGFDLASEQHTVRDTAFLMEQLALRAELDAIEQAKDEARLESFIKRVKKMFDTRHQLMVEQLDNETWDAAADTVRKLRFLDKLRSSAEQLEEKLLDF
- HscA ATPase activity, 23 °C, in the absence of IscU: maximal stimulation: 4.3 fold

B2: HscB(L92A,M93A,F153A) (natural protein)
chain: B1 chain with L92A, M93A, A97E, A100E, A104E, F153A
- HscA ATPase activity, 23 °C, in the absence of IscU: maximal stimulation: 3.8 fold
